Data published in US20240218374.

Experiments:
Test in all cases: filter
[1] = target: Spike S2 ECD (SARS-CoV-2) (UniProt P0DTC2); details: Y=Tyr-dU, p=Nap-dC
[2] = target: Spike RBD (SARS-CoV-2) (UniProt P0DTC2); details: P=Nap-dU
[3] = target: Spike S1 (SARS-CoV-2) (UniProt P0DTC2); details: P=Nap-dU
[4] = target: Spike S1 & S2 ECD (SARS-CoV-2) (UniProt P0DTC2)
[5] = printed GCATCAPCPCCCAGCPAAPGAGPGPCPGAAPPGGACPGGPCCPCPGGGGA [7,9,16,19,23,25,27,31,32,37,40,43,45]
[6] = printed GCATCGGAAPGAAPGPCPGCCPPGCACPGGPGCGGPCCGAPPGPGAGGGA [Nap-dU at 10,14,16,18,22,23,28,31,36,41,42,44]
[7] = Y=Tyr-dU, p=Nap-dC, SB18T0.01, 37 C

Sequence: CCTTGCAGGCGGCACATGGCACTTCATATCGAGCGGAAGG [26876-3_4 (SL1114)]
- Kd ([1]; printed CCTTGpAGGpGGpApAYGGpApYYpAYAYpGAGpGGAAGG [Nap-dC: 6,10,13,15,20,22,25,30,34, Tyr-dU: 17,23,24,27,29]): 0.37 nM

Sequence: CCTTGTGCAACGCACCTTATTCGGCTTGAATGTGAGAAGG [26876-13_4 (SL1115)]
- Kd ([1]; printed CCTTGYGpAApGpAppYYAYYpGGpYYGAAYGYGAGAAGG [Nap-dC: 8,11,13,15,16,22,25, Tyr-dU: 6,17,18,20,21,26,27,31,33]): 0.19 nM

Sequence: GCATCATCTCCCAGCTAATGAGTGTCTGAATTGGACTGGTCCTCTGGGGA [26860-75_3 (SL1107)]
- Kd [2, 5]: 0.23 nM
- Kd [3, 5]: 2.8 nM

Sequence: GCATCGGAATGAATGTCTGCCTTGCACTGGTGCGGTCCGATTGTGAGGGA [26860-16_3 (SL1108)]
- Kd [2, 6]: 0.061 nM
- Kd [3, 6]: 0.48 nM

Sequence: GGGANANNANGNGNNNGANNGNNNGGANG [26874-29_107]
- Kd ([4]; 2NapdU at 5, other dU Tyr-dU, dC Nap-dC, SB18T0.01, 37 C): 0.49 nM

Sequence: GGGANANNANGNGNNNGANNGNNNGGANG [26874-29_108]
- Kd ([4]; MOEdU at 8, other dU Tyr-dU, dC Nap-dC, SB18T0.01, 37 C): 0.72 nM

Sequence: GGGANANNANGNGNNNGANNGNNNGGANG [26874-29_109]
- Kd ([4]; 2NapdU at 8, other dU Tyr-dU, dC Nap-dC, SB18T0.01, 37 C): 0.48 nM

Sequence: GGGANANNANGNGNNNGANNGNNNGGANG [26874-29_110]
- Kd ([4]; MOEdU at 10, other dU Tyr-dU, dC Nap-dC, SB18T0.01, 37 C): 0.43 nM

Sequence: GGGANANNANGNGNNNGANNGNNNGGANG [26874-29_112]
- Kd ([4]; MOEdU at 14, other dU Tyr-dU, dC Nap-dC, SB18T0.01, 37 C): 0.56 nM

Sequence: GGGANANNANGNGNNNGANNGNNNGGANG [26874-29_113]
- Kd ([4]; 2NapdU at 14, other dU Tyr-dU, dC Nap-dC, SB18T0.01, 37 C): 0.32 nM

Sequence: GGGANANNANGNGNNNGANNGNNNGGANG [26874-29_114]
- Kd ([4]; MOEdU at 23, other dU Tyr-dU, dC Nap-dC, SB18T0.01, 37 C): 0.81 nM

Sequence: GGGANANNANGNGNNNGANNGNNNGGANG [26874-29_115]
- Kd ([4]; 2NapdU at 23, other dU Tyr-dU, dC Nap-dC, SB18T0.01, 37 C): 0.46 nM

Sequence: GGGANANNANGNGNNNGANNGNNNGGANG [26874-29_116]
- Kd ([4]; BTdU at 5, other dU Tyr-dU, dC Nap-dC, low plateau): 0.53 nM

Sequence: GGGANANNANGNGNNNGANNGNNNGGANG [26874-29_117]
- Kd ([4]; POPdU at 5, other dU Tyr-dU, dC Nap-dC, SB18T0.01, 37 C): 0.42 nM

Sequence: GGGANANNANGNGNNNGANNGNNNGGANG [26874-29_118]
- Kd ([4]; BTdU at 8, other dU Tyr-dU, dC Nap-dC, SB18T0.01, 37 C): 0.39 nM

Sequence: GGGANANNANGNGNNNGANNGNNNGGANG [26874-29_119]
- Kd ([4]; Y=Tyr-dU, p=Nap-dC, position 8 POP-dU, value curated as assigned, Kd/Kd_20 1656): 500 nM

Sequence: GGGANANNANGNGNNNGANNGNNNGGANG [26874-29_120]
- Kd ([4]; BTdU at 10, other dU Tyr-dU, dC Nap-dC, SB18T0.01, 37 C): 0.24 nM

Sequence: GGGANANNANGNGNNNGANNGNNNGGANG [26874-29_121]
- Kd ([4]; POPdU at 10, other dU Tyr-dU, dC Nap-dC, low plateau): 0.42 nM

Sequence: GGGANANNANGNGNNNGANNGNNNGGANG [26874-29_122]
- Kd ([4]; BTdU at 14, other dU Tyr-dU, dC Nap-dC, SB18T0.01, 37 C): 0.16 nM

Sequence: GGGANANNANGNGNNNGANNGNNNGGANG [26874-29_123]
- Kd ([4]; Y=Tyr-dU, p=Nap-dC, position 14 POP-dU, value curated as assigned, Kd/Kd_20 1656): 500 nM

Sequence: GGGANANNANGNGNNNGANNGNNNGGANG [26874-29_124]
- Kd ([4]; BTdU at 23, other dU Tyr-dU, dC Nap-dC, SB18T0.01, 37 C): 0.64 nM

Sequence: GGGANANNANGNGNNNGANNGNNNGGANG [26874-29_125]
- Kd ([4]; POPdU at 23, other dU Tyr-dU, dC Nap-dC, low plateau): 0.37 nM

Sequence: GGGANANNANGNGNNNGANNGNNNGGANG [26874-29_126]
- Kd ([4]; 2NEdU at 5, other dU Tyr-dU, dC Nap-dC, low plateau): 0.65 nM

Sequence: GGGANANNANGNGNNNGANNGNNNGGANG [26874-29_128]
- Kd ([4]; Y=Tyr-dU, p=Nap-dC, position 8 2NE-dU, value curated as assigned, Kd/Kd_20 1656): 500 nM

Sequence: GGGANANNANGNGNNNGANNGNNNGGANG [26874-29_130]
- Kd ([4]; 2NEdU at 10, other dU Tyr-dU, dC Nap-dC, SB18T0.01, 37 C): 0.28 nM

Sequence: GGGANANNANGNGNNNGANNGNNNGGANG [26874-29_132]
- Kd ([4]; 2NEdU at 14, other dU Tyr-dU, dC Nap-dC, SB18T0.01, 37 C): 0.27 nM

Sequence: GGGANANNANGNGNNNGANNGNNNGGANG [26874-29_134]
- Kd ([4]; Y=Tyr-dU, p=Nap-dC, position 23 2NE-dU, very low plateau, faint spots): 0.12 nM

Sequence: GGGANANNANGNGNNNGANNGNNNGGANG [26874-29_136]
- Kd ([4]; iBudU at 5, other dU Tyr-dU, dC Nap-dC, SB18T0.01, 37 C): 0.57 nM

Sequence: GGGANANNANGNGNNNGANNGNNNGGANG [26874-29_138]
- Kd ([4]; iBudU at 8, other dU Tyr-dU, dC Nap-dC, SB18T0.01, 37 C): 0.59 nM

Sequence: GGGANANNANGNGNNNGANNGNNNGGANG [26874-29_140]
- Kd ([4]; iBudU at 10, other dU Tyr-dU, dC Nap-dC, SB18T0.01, 37 C): 0.47 nM

Sequence: GGGANANNANGNGNNNGANNGNNNGGANG [26874-29_142]
- Kd ([4]; iBudU at 14, other dU Tyr-dU, dC Nap-dC, SB18T0.01, 37 C): 0.37 nM

Sequence: GGGANANNANGNGNNNGANNGNNNGGANG [26874-29_144]
- Kd ([4]; iBudU at 23, other dU Tyr-dU, dC Nap-dC, SB18T0.01, 37 C): 0.57 nM

Sequence: GGGANANNANGNGNNNGANNGNNNGGANG [26874-29_146]
- Kd ([4]; MBndU at 5, other dU Tyr-dU, dC Nap-dC, low plateau): 0.61 nM

Sequence: GGGANANNANGNGNNNGANNGNNNGGANG [26874-29_147]
- Kd ([4]; BPEdU at 5, other dU Tyr-dU, dC Nap-dC, assigned, low plateau): 0.44 nM

Sequence: GGGANANNANGNGNNNGANNGNNNGGANG [26874-29_148]
- Kd ([4]; MBndU at 8, other dU Tyr-dU, dC Nap-dC, low plateau): 0.46 nM

Sequence: GGGANANNANGNGNNNGANNGNNNGGANG [26874-29_149]
- Kd ([4]; BPEdU at 8, other dU Tyr-dU, dC Nap-dC, low plateau): 0.47 nM

Sequence: GGGANANNANGNGNNNGANNGNNNGGANG [26874-29_150]
- Kd ([4]; Y=Tyr-dU, p=Nap-dC, position 10 MBn-dU, Kd/Kd_20 38): 16 nM

Sequence: GGGANANNANGNGNNNGANNGNNNGGANG [26874-29_151]
- Kd ([4]; BPEdU at 10, other dU Tyr-dU, dC Nap-dC, SB18T0.01, 37 C): 0.78 nM

Sequence: GGGANANNANGNGNNNGANNGNNNGGANG [26874-29_152]
- Kd ([4]; MBndU at 14, other dU Tyr-dU, dC Nap-dC, SB18T0.01, 37 C): 0.33 nM

Sequence: GGGANANNANGNGNNNGANNGNNNGGANG [26874-29_153]
- Kd ([4]; Y=Tyr-dU, p=Nap-dC, position 14 BPE-dU, Kd/Kd_20 0.28): 0.11 nM

Sequence: GGGANANNANGNGNNNGANNGNNNGGANG [26874-29_154]
- Kd ([4]; MBndU at 23, other dU Tyr-dU, dC Nap-dC, SB18T0.01, 37 C): 0.43 nM

Sequence: GGGANANNANGNGNNNGANNGNNNGGANG [26874-29_155]
- Kd ([4]; BPEdU at 23, other dU Tyr-dU, dC Nap-dC, SB18T0.01, 37 C): 0.17 nM

Sequence: GGGANANNANGNGNNNGANNGNNNGGANG [OH-26874-29_181]
- Kd ([4]; 2Nap-dC at 7, other dC Nap-dC, dU Tyr-dU): 0.2 nM

Sequence: GGGANANNANGNGNNNGANNGNNNGGANG [OH-26874-29_182]
- Kd ([4]; 2Nap-dC at 12, other dC Nap-dC, dU Tyr-dU): 0.41 nM

Sequence: GGGANANNANGNGNNNGANNGNNNGGANG [OH-26874-29_315]
- Kd ([4]; Y=Tyr-dU, p=Nap-dC, position 12 PBn-dC, protein construct inferred): 0.16 nM

Sequence: GGGANANNANGNGNNNGANNGNNNGGANG [OH-26874-29_328]
- Kd ([4]; Y=Tyr-dU, p=Nap-dC, position 20 DPP-dC): 0.038 nM

Sequence: GGGANANNANGNGNNNGANNGNNNGGANG [OH-26874-29_330]
- Kd ([4]; Y=Tyr-dU, p=Nap-dC, position 24 DPP-dC, protein construct inferred): 0.11 nM

Sequence: GGGANANNANGNGNNNGANNGNNNGGANG [OH-26874-29_331]
- Kd ([4]; Y=Tyr-dU, p=Nap-dC, position 28 DPP-dC, protein construct inferred): 0.13 nM

Sequence: GGGANANNANGNGNNNGANNGNNNGGANG [OH-26874-29_332]
- Kd ([4]; Y=Tyr-dU, p=Nap-dC, position 7 DCPE-dC, protein construct inferred): 0.13 nM

Sequence: GGGANANNANGNGNNNGANNGNNNGGANG [OH-26874-29_333]
- Kd ([4]; Y=Tyr-dU, p=Nap-dC, position 12 DCPE-dC, protein construct inferred): 0.11 nM

Sequence: GGGANANNANGNGNRNGANNGNNNGGANG [OH-26874-29_192]
- Kd ([4]; Y=Tyr-dU, p=Nap-dC, position 15 PP-dC, protein construct inferred): 1000 nM

Sequence: GNGNAANGNANNNNANNNGGNNNGAANGNG [26876-13_15]
- Kd [4, 7]: 0.26 nM

Sequence: NANNANGNGNNNGANNGNNNGGANG [26874-29_24]
- Kd [4, 7]: 2.1 nM

Sequence: NANNANGNGNNNGANNGNNNGGANGG [26874-29_22]
- Kd [4, 7]: 1.4 nM
